Test results: patent US20070092518A1 (published 2007)
Changes are numbered by the printed parent chain.

B1: SEQ ID NO 28 (Fab, V domains shown)
VH: EVQLVESGGGLVQPGGSLRLSCAASGSTFSNHWMNWVRQAPGKGLEWIGEIRSKSSYGATSYAESVKGRFIISRDGNGNSLTLEMNSLKTEDTAEYYCAQNYYGSTPDYWGQGTLVTVS
VL: EIVLTQSPDFQSVTPKEKVTITCRASQFVGSSIHWYQQKPDQSPKLLIKYASESMSGVPSRFSGSGSGTDFTFTISSLEAEDAATYYCQQSHSWPFTFGPGTKVDIK
notes: Fab, E. coli lysate
B2: SEQ ID NO 91 (Fab, V domains shown)
VH: EVQLTESGGGLVQPGGSLRLSCAASQSIFSNHYMNWVRQAPGKGLEWIGEIRSKSINSATHYAESVKGRFIISRDGNKNDLYLEMNSLKTEDTAEYYCARNYYGSTPDYWGQGTLVTVS
VL: B1 VL
notes: Fab, E. coli lysate
B3: SEQ ID NO 49 (Fab, V domains shown)
VH: B1 VH with V5T, G26Q, S27F, T28I, S61H, T82Y, P107Y
VL: B1 VL
notes: Fab, E. coli lysate
B4: SEQ ID NO 58 (Fab, V domains shown)
VH: B2 VH with S27F, Y33W, I56S, H61S, G76D, K78G, R100Q, P107Y
VL: B1 VL
notes: Fab, E. coli lysate
B5: SEQ ID NO 46 (Fab, V domains shown)
VH: B1 VH with A23R, W33Y, S80D, T82Y
VL: B1 VL
notes: Fab, E. coli lysate
B6: SEQ ID NO 65 (Fab, V domains shown)
VH: B1 VH with A23R, S27F, T28I, S56I, S61H, G76D, G78K, T82Y, P107Y
VL: B1 VL
notes: Fab, E. coli lysate
B7: SEQ ID NO 79 (Fab, V domains shown)
VH: B2 VH with T5V, N57Y, S58G, Y82T
VL: B1 VL
notes: Fab, E. coli lysate
B8: SEQ ID NO 84 (Fab, V domains shown)
VH: B2 VH with T5V, I28T, Y33W, I56S, N57Y, P107Y
VL: B1 VL
notes: Fab, E. coli lysate
B9: SEQ ID NO 85 (Fab, V domains shown)
VH: B1 VH with V5T, A23R, S27F, T28I, Y57N, N79T, P107Y
VL: B1 VL
notes: Fab, E. coli lysate
B10: SEQ ID NO 40 (Fab, V domains shown)
VH: B2 VH with T5V, Q26G, I28T, H61S, K78G, N79T, D80S, P107Y
VL: B1 VL
notes: Fab, E. coli lysate
B11: SEQ ID NO 87 (Fab, V domains shown)
VH: B2 VH with T5V, Q26G, S27F, I28T, Y33W, I56S, N79T, D80S, P107Y
VL: B1 VL
notes: Fab, E. coli lysate
B12: SEQ ID NO 54 (Fab, V domains shown)
VH: B1 VH with V5T, T28I, W33Y, S56I, T82Y
VL: B1 VL
notes: Fab, E. coli lysate
B13: SEQ ID NO 88 (Fab, V domains shown)
VH: B1 VH with S27F, Y57N, G58S, G78K, S80D, Q100R, P107Y
VL: B1 VL
notes: Fab, E. coli lysate
B14: SEQ ID NO 66 (Fab, V domains shown)
VH: B2 VH with A23R, Q26G, S27F, I28T, N57Y, G76D, N79T, Y82T, P107Y
VL: B1 VL
notes: Fab, E. coli lysate
B15: SEQ ID NO 81 (Fab, V domains shown)
VH: B1 VH with A23R, W33Y, S56I, Y57N, G58S, N79T, S80D, P107Y
VL: B1 VL
notes: Fab, E. coli lysate
B16: SEQ ID NO 36 (Fab, V domains shown)
VH: B1 VH with G26Q, S27F, W33Y, S56I, G76D, N79T, T82Y, Q100R, P107Y
VL: B1 VL
notes: Fab, E. coli lysate
B17: SEQ ID NO 67 (Fab, V domains shown)
VH: B2 VH with A23R, Q26G, S27F, I28T, N57Y, N79T, Y82T
VL: B1 VL
notes: Fab, E. coli lysate
B18: SEQ ID NO 52 (Fab, V domains shown)
VH: B1 VH with A23R, T28I, G58S, S61H, Q100R, P107Y
VL: B1 VL
notes: Fab, E. coli lysate
B19: SEQ ID NO 76 (Fab, V domains shown)
VH: B2 VH with A23R, Q26G, S27F, S58G, G76D, K78G, N79T, D80S, P107Y
VL: B1 VL
notes: Fab, E. coli lysate
B20: SEQ ID NO 74 (Fab, V domains shown)
VH: B1 VH with V5T, G58S, G76D, G78K, Q100R
VL: B1 VL
notes: Fab, E. coli lysate
B21: SEQ ID NO 45 (Fab, V domains shown)
VH: B2 VH with T5V, A23R, Q26G, S27F, Y33W, N57Y, K78G, Y82T
VL: B1 VL
notes: Fab, E. coli lysate
B22: SEQ ID NO 73 (Fab, V domains shown)
VH: B1 VH with A23R, T28I, W33Y, G76D, G78K, S80D
VL: B1 VL
notes: Fab, E. coli lysate
B23: SEQ ID NO 57 (Fab, V domains shown)
VH: B1 VH with V5T, S27F, T28I, G58S, S61H, G76D, N79T, T82Y, P107Y
VL: B1 VL
notes: Fab, E. coli lysate
B24: SEQ ID NO 61 (Fab, V domains shown)
VH: B2 VH with T5V, A23R, Q26G, S27F, N57Y, S58G, K78G, P107Y
VL: B1 VL
notes: Fab, E. coli lysate
B25: SEQ ID NO 69 (Fab, V domains shown)
VH: B2 VH with T5V, A23R, S27F, I28T, Y33W, I56S, K78G, D80S, P107Y
VL: B1 VL
notes: Fab, E. coli lysate
B26: SEQ ID NO 33 (Fab, V domains shown)
VH: B2 VH with T5V, A23R, Q26G, I56S, S58G, G76D, D80S, P107Y
VL: B1 VL
notes: Fab, E. coli lysate
B27: SEQ ID NO 43 (Fab, V domains shown)
VH: B1 VH with A23R, T28I, S56I, Y57N, G76D
VL: B1 VL
notes: Fab, E. coli lysate
B28: SEQ ID NO 75 (Fab, V domains shown)
VH: B1 VH with A23R, S27F, S56I, G58S, S61H, G76D, G78K, Q100R
VL: B1 VL
notes: Fab, E. coli lysate
B29: SEQ ID NO 44 (Fab, V domains shown)
VH: B2 VH with Q26G, S27F, I28T, Y33W, I56S, N57Y, G76D, N79T, Y82T, P107Y
VL: B1 VL
notes: Fab, E. coli lysate
B30: SEQ ID NO 31 (Fab, V domains shown)
VH: B2 VH with S27F, I56S, N57Y, S58G, N79T, Y82T, R100Q, P107Y
VL: B1 VL
notes: Fab, E. coli lysate
B31: SEQ ID NO 42 (Fab, V domains shown)
VH: B1 VH with S27F, W33Y, G58S, G76D, G78K, Q100R
VL: B1 VL
notes: Fab, E. coli lysate
B32: SEQ ID NO 83 (Fab, V domains shown)
VH: B2 VH with A23R, Q26G, S27F, S58G, H61S, G76D, K78G, D80S
VL: B1 VL
notes: Fab, E. coli lysate
B33: SEQ ID NO 68 (Fab, V domains shown)
VH: B2 VH with A23R, S27F, Y33W, G76D, Y82T, P107Y
VL: B1 VL
notes: Fab, E. coli lysate
B34: SEQ ID NO 72 (Fab, V domains shown)
VH: B2 VH with A23R, Q26G, N57Y, K78G, N79T, D80S, R100Q, P107Y
VL: B1 VL
notes: Fab, E. coli lysate
B35: SEQ ID NO 51 (Fab, V domains shown)
VH: B2 VH with A23R, Q26G, S27F, I56S, N57Y, H61S, Y82T, P107Y
VL: B1 VL
notes: Fab, E. coli lysate
B36: SEQ ID NO 77 (Fab, V domains shown)
VH: B1 VH with W33Y, S56I, G58S, G76D, T82Y, P107Y
VL: B1 VL
notes: Fab, E. coli lysate
B37: SEQ ID NO 89 (Fab, V domains shown)
VH: B2 VH with T5V, A23R, S27F, I28T, S58G, H61S, G76D, K78G, N79T, P107Y
VL: B1 VL
notes: Fab, E. coli lysate
B38: SEQ ID NO 64 (Fab, V domains shown)
VH: B2 VH with S27F, I28T, Y33W, N57Y, S58G, G76D, N79T, D80S
VL: B1 VL
notes: Fab, E. coli lysate

Biological target: T1, human tumor necrosis factor-α (rHuTNF-alpha, Biosource) (human, UniProt P01375 77-233)
T1 construct: Bought recombinant protein coated on ELISA plates; The TNFα of the Biacore assay is not described further; also called TNFα; human TNFα
T1 sequence (P01375 77-233 limits assumed): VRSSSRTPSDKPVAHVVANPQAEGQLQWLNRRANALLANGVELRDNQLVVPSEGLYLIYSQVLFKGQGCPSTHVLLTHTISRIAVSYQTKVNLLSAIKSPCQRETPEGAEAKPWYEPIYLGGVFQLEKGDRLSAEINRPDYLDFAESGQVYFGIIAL
Experiment: solid-phase ELISA, Fab lysate on coated rHuTNF-alpha
Experimental: The Fab libraries were cloned into pTrcHis2A (Cat. No. V365-20, Invitrogen, Carlsbad, Calif.). Proteins were expressed in E. coli and solid-phase ELISA was used to assess Fab binding to human TNFα. Briefly, 96-well plates were coated overnight at 4° C. with 1 μg/ml of rHuTNF-alpha (Biosource, Camarillo, Calif.) in Carbonate-bicarbonate buffer, pH9.4. After washing in PBS with 0.05% (w/v) Tween-20, the wells were blocked with 1% (w/v) BSA in PBS for 1 hour at room temperature. After washing, plates were incubated with transformed E. coli cell lysate diluted in the assay buffer (1% BSA and 0.05% Tween-20 in 10 mM PBS) for 2 hours at room temperature. Various concentrations of infliximab (0.5, 1 and 2 ng/ml) were used as positive anti-Human Kappa Light Chain Biotin/anti-penta-His Biotin control. Plates were washed and incubated with ImmunoPure Goat Anti-Human Kappa Chain, Biotin Conjugated (Cat. No. 31780, Pierce Biotechnology, Rockford, Ill.) and Penta-His Biotin Conjugate (Cat. No. 34440, QIAGEN, Valencia, Calif.) diluted 1:2000 in the assay buffer for 1 hour at room temperature. Following another washing step, plates were probed for 1 hour at room temperature with 100 μL/well of Streptavidin POD (Cat. No. 1089153, Roche Applied Science, Indianapolis, Ind.) diluted 1:4000 in the assay buffer. Plates were further washed and then incubated with 3,3′,5,5′-tetramentylbenzidine (TMB, Cat. No. 34028, Pierce Biotechnology) for 30 minutes. Substrate development was stopped by addition of 100 μL/well TMB Stop Solution (Cat. No. 50-85-05, KPL, Gaithersburg, Md.) and the absorbance was measured at 450 nm via an automated plate spectrophotometer.

Binder | binding result
B1 | binds
B2 | binds
B3 | binds
B4 | binds
B5 | binds
B6 | binds
B7 | binds
B8 | binds
B9 | binds
B10 | binds
B11 | binds
B12 | binds
B13 | binds
B14 | binds
B15 | binds
B16 | binds
B17 | binds
B18 | binds
B19 | binds

Binder | binding result
B20 | binds
B21 | binds
B22 | binds
B23 | binds
B24 | binds
B25 | binds
B26 | binds
B27 | binds
B28 | binds
B29 | binds
B30 | binds
B31 | binds
B32 | binds
B33 | binds
B34 | binds
B35 | binds
B36 | binds
B37 | binds
B38 | binds
